Earlier results on three molecules are cited in patent publication US20250099434A1, “METHODS OF TREATING AMYLOID RELATED BRAIN DISORDERS USING NOVEL COMPOUNDS AND ANTIBODIES” (T3D Therapeutics, Inc., priority 2022, published 2025).

The conditions of data set [1]: human, in vivo; cited from earlier work.
For data set [2] the following is noted: EXPEDITION-3; cited from earlier work.
For a further data set, the system named is brain amyloid. Particulars: cited from earlier work.
The next data set has as its system Aβ fibrils. Particulars: cited from earlier work.

Turning to “Crenezumab: humanized antibody with an IgG4 backbone recognizing multiple forms of aggregated Aβ”, the ARIA incidence entry in data set [1] is given as “low”.
“solanezumab: humanized monoclonal IgG1 antibody directed against the mid-domain of the Aβ peptide”: the “incidence of vasogenic edema (ARIA-E), patients treated” value in data set [2] is “approximately 0.1%”.

B1: Gantenerumab: fully human IgG1 antibody binding a conformational epitope on Aβ fibrils (antibody, chains of the INN, looked up, V domains shown)
VH: QVELVESGGGLVQPGGSLRLSCAASGFTFSSYAMSWVRQAPGKGLEWVSAINASGTRTYYADSVKGRFTISRDNSKNTLYLQMNSLRAEDTAVYYCARGKGNTHKPYGYVRYFDVWGQGTLVTVSS
VL: DIVLTQSPATLSLSPGERATLSCRASQSVSSSYLAWYQQKPGQAPRLLIYGASSRATGVPARFSGSGSGTDFTLTISSLEPEDFATYYCLQIYNMPITFGQGTKVEIK
Take B1: in the data set with brain amyloid (dosed as high as 1200 mg subcutaneously), the “lowering of brain amyloid, average, florbetapir PET” value was 59 centiloid. Further, in the data set on brain amyloid (extension studies), the “participants who developed ARIA-E” value is on record as “one-third”. Further, the “patients with ARIA” value in the data set with brain amyloid (highest dose) is reported as “one third”. The “affinity to a conformational epitope on Aβ fibrils” value with Aβ fibrils is given as “sub-nanomolar”.
